T1: WT G-CSF, purified from insect cells, tag cleaved (human, UniProt P09919 31-206)
T1 construct: protein of the SPR; also called G-CSFWT; wild type G-CSF
T1 sequence: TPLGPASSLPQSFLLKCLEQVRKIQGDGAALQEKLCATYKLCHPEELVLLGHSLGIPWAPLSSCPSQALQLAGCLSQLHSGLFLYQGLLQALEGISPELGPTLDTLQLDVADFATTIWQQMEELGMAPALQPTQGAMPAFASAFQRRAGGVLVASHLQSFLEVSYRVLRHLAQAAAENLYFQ

T2: design 401 G-CSFR(Ig-CRH)E, tag cleaved (human, UniProt Q99062 26-331)
T2 chain: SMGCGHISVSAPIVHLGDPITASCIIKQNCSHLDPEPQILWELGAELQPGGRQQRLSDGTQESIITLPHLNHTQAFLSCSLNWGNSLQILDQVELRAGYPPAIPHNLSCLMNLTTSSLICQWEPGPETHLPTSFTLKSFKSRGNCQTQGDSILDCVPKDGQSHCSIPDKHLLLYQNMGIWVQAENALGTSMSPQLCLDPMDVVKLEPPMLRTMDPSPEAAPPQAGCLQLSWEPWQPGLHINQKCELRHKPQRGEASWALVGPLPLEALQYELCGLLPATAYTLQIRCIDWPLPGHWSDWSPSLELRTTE

T3: design 402 G-CSFR(Ig-CRH)E, tag cleaved (human, UniProt Q99062 26-331)
T3 chain: T2 chain with D168E, Q175E, D289E

T4: design 134 G-CSFR(Ig-CRH)E, tag cleaved (human, UniProt Q99062 26-331)
T4 construct: also called design 137 G-CSFR(Ig-CRH)E
T4 chain: T2 chain with R142E, D289R

T5: design 130 G-CSFR(Ig-CRH)E, tag cleaved (human, UniProt Q99062 26-331)
T5 construct: also called 130 ECD (Ig-CRH)
T5 chain: T2 chain with D289R

B1: WT G-CSFR(Ig-CRH), purified, tag cleaved (receptor)
chain: GSMGCGHISVSAPIVHLGDPITASCIIKQNCSHLDPEPQILWRLGAELQPGGRQQRLSDGTQESIITLPHLNHTQAFLSCSLNWGNSLQILDQVELRAGYPPAIPHNLSCLMNLTTSSLICQWEPGPETHLPTSFTLKSFKSRGNCQTQGDSILDCVPKDGQSHCSIPRKHLLLYQNMGIWVQAENALGTSMSPQLCLDPMDVVKLEPPMLRTMDPSPEAAPPQAGCLQLSWEPWQPGLHINQKCELRHKPQRGEASWALVGPLPLEALQYELCGLLPATAYTLQIRCIRWPLPGHWSDWSPSLELRTTE
notes: also called G-CSFRWT; wild type G-CSFR(Ig-CRH)
B2: design 401 G-CSFE, tag cleaved (ligand)
chain: T1 sequence with E19K, E46R, L108K, D112R
B3: design 402 G-CSFE, tag cleaved (ligand)
chain: T1 sequence with E19K, E46R, D112K, T115K
B4: design 130 G-CSFE, tag cleaved (ligand)
chain: T1 sequence with E46R, L108K, D112R
notes: also called design 137 G-CSFE; G-CSF137

In test [1] the target is T1, WT G-CSF, purified from insect cells, …. Kind of test: SPR (Biacore T200, 25 °C), single-cycle kinetics, 1:1 Langmuir fit; lower end of the range found for the WT:WT pair. The protocol: (§1) To assess binding affinity of G-CSFE to G-CSFRWT, recombinant G-CSFRWT purified as described in Example 5 was captured as described above in this Example. Using single-cycle kinetics, six concentrations of a two-fold dilution series of each G-CSFE mutant starting at […] with a blank buffer control were sequentially injected as described above. The same sample titration was also performed on a reference cell with no variants captured. The G-CSFRWT surface was regenerated as described above.
(§2) Double-referenced sensorgrams from duplicate or triplicate repeat injections were analyzed using Biacore™ T200 Evaluation Software v3.0 and fit to the 1:1 Langmuir binding model.
(§3) Kinetic-derived affinity constants (KD) where obtained by fitting the association and dissociation phases of the curves. The KD of WT G-CSF for WT G-CSFR(Ig-CRH) ranged between 1.8-2.5E-9. For the cases in which the kinetic parameters could not be fit an attempt was made to derive a steady state affinity constant. In those cases, the KD fold change was calculated from the steady state derived KD for the WT G-CSF:WT G-CSFR(Ig-CRH) pair and is indicated in Table 7.

Test [2] deals with B1. Kind of test: SPR, single-cycle kinetics, G-CSFR(Ig-CRH) on the chip, G-CSF injected. As for the experimental part:
The SPR binding assays were carried out on a Biacore T200 instrument (GE Healthcare, Mississauga, ON, Canada) with PBS-T (PBS+0.05% (v/v) Tween 20) running buffer at a temperature of 25° C. CM5 Series S sensor chip, Biacore amine coupling kit (NHS, EDC and 1 M ethanolamine), and 10 mM sodium acetate buffers were all purchased from GE Healthcare. PBS running buffer with 0.05% Tween20 (PBS-T) was purchased from Teknova Inc. (Hollister, CA). Designs were assessed in three different immobilization orientations.
as §1, §2
In general terms: SPR reads the build-up and loss of mass on a sensor chip optically.

Test [3] concerns the target T2, design 401 G-CSFR(Ig-CRH)E, tag cleaved. Description: SPR, G-CSFRE amine-coupled, G-CSFE injected; steady state derived affinity constant. The protocol:
(§4) To determine binding affinity of G-CSFE to G-CSFRE the G-CSFRE mutant was captured by standard amine coupling as described by the manufacturer (GE LifeSciences). Briefly, immediately after EDC/NHS activation, a 5 μg/mL solution of G-CSFRE in 10 mM NaOAc, pH 5.0, was injected at a flow rate of 5 μL/min until a receptor density of ˜700-900 RU was reached. The remaining active groups were quenched by a 420 s injection of 1 M ethanolamine hydrochloride-NaOH pH 8.5 at 10 μL/min. Using single-cycle kinetics, six concentrations of a two-fold dilution series of the corresponding G-CSFE mutant starting at 200 nM with a blank buffer control were sequentially injected at 25 μL/min for 300 s with a 1800 s dissociation phase, resulting in a set of sensorgrams with a buffer blank reference. The same sample titration was also performed on a reference cell with no variants captured. The chip was regenerated to prepare for the next injection cycle by one pulse of 10 mM glycine/HCl, pH 2.0, for 30 s at 30 μL/min.
as §2, §3

Test [4] deals with T3, design 402 G-CSFR(Ig-CRH)E, tag cleaved. The description is as above. As for the experimental part: as §4, §2, §3
The target of test [5] is T4, design 134 G-CSFR(Ig-CRH)E, tag cleaved. Kind of test: SPR, G-CSFRE amine-coupled, G-CSFE injected, single-cycle kinetics.
The target of test [6] is T5, design 130 G-CSFR(Ig-CRH)E, tag cleaved. The test is described as above.

Substitutions are numbered along the chain they refer to.

These results are taken from US20240254182A1 (PROVINCIAL HEALTH SERVICES AUTHORITY, published 2024).

Take B1: the dissociation constant (Kd) (usually the equilibrium constant for the complex coming apart) in test [1] was in the range of 1.8 to 2.5 nM.

As for B2, in test [2], the binding result is “no binding”. The “KD fold change (against WT:WT)” value in test [3] is 0.6 fold.

Consider B3, for which, in test [2], the binding result is “no binding”. The “KD fold change (against WT:WT)” value in test [4] worked out at 0.8 fold.

For the molecule B4, in test [2], the binding result is listed as “no binding”. Besides, the “KD fold change (against WT:WT)” value in test [5] was determined as 0.3 fold; in test [6], 0.9 fold.
